Laboratory results: article PMC6889914, “Identifying dynamic, partially occupied residues using anomalous scattering” (Acta Crystallographica. Section D, Structural Biology, 2019)
Where no end group is shown, it is not given here. [ ]: non-standard residue; d: D form. Phe(4-I) = N[C@@H](Cc1ccc(I)cc1)C(=O)O

T1: Spy H96L (UniProt P77754 24-161, H96L)
T1 sequence: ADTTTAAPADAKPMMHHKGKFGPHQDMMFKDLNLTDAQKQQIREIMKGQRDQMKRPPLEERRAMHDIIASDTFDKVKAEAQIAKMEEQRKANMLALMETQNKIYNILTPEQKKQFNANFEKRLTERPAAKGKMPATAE

T2: Spy H96L (UniProt P77754 24-161, H96L)
T2 construct: also called Super Spy chaperone mutant Spy H96L
T2 sequence (looked up): T1 sequence

B1: Im7 6–26 peptide (wild type) (peptide)
peptide: SISDYTEAEFVQLLKEIEKEN
notes: also called wild-type Im7 6–26 peptide; Im7 peptide
B2: Im7 6–26 peptide K20pI-Phe (peptide)
peptide: SISDYTEAEFVQLLFEIEKEN
notes: also called L20pI-Phe (as misprinted in places)
B3: Im7 6–26 peptide L19pI-Phe (peptide)
peptide: SISDYTEAEFVQL[Phe(4-I)]KEIEKEN
B4: Im7 6–26 peptide L18pI-Phe (peptide)
peptide: SISDYTEAEFVQ[Phe(4-I)]LKEIEKEN

Experiments:
Spy H96L [1] = biological target: T1, Spy H96L; assay: ITC
Spy H96L [2] = biological target: T2, Spy H96L; assay: ITC; MicroCal iTC200; titration of Spy H96L (1.25 mM) with the Im7 6–26 peptides (0.11 µM wild type, 0.055 µM pI-Phe peptides); 10°C; 40 mM HEPES–NaOH pH 7.5, 100 mM NaCl; 2 µl injections at 180 s; one-site model; settings: both partners purified

Binder	Ka (Spy H96L [1]) [M⁻¹]	Kd (Spy H96L [2]) [µM]	binding result (Spy H96L [2])
B1	102000	7.8 ± 0.6	–
B2	218000	–	binds
B3	219000	–	binds
B4	1.59e+06	–	binds
